Holding throughout (assay): ELISA on coated antigen, background subtracted
In general terms: ELISA stands for enzyme-linked immunosorbent assay.

The target of assay [1] is recombinant ED-B domain of human fibronectin with a carboxy terminal hexahistidine tag (human) (UniProt P02751).
Assay [2] deals with recombinant FN fragment 789 (human) (UniProt P02751).
The target in assay [3] is fibronectin purified from the conditioned medium of the SV40-transformed cell line WI38VA13 (human) (UniProt P02751).
Assay [4] concerns the target human plasma fibronectin (human) (UniProt P02751).
The target of assay [5] is recombinant FN domain 6 (human) (UniProt P02751).
In assay [6] the target is recombinant FN fragment 7B89 (human) (UniProt P02751).
The target in assay [7] is native FN 110 kD (B-) thermolysin fragment (human) (UniProt P02751).
Assay [8] addresses large isoform of tenascin-C (UniProt P24821).
Assay [9] addresses native FN 120 kD (B+) thermolysin fragment (human) (UniProt P02751).

Experimental findings from patent US8703143 are described below.

Sequence of large isoform of tenascin-C (P24821 23-2201): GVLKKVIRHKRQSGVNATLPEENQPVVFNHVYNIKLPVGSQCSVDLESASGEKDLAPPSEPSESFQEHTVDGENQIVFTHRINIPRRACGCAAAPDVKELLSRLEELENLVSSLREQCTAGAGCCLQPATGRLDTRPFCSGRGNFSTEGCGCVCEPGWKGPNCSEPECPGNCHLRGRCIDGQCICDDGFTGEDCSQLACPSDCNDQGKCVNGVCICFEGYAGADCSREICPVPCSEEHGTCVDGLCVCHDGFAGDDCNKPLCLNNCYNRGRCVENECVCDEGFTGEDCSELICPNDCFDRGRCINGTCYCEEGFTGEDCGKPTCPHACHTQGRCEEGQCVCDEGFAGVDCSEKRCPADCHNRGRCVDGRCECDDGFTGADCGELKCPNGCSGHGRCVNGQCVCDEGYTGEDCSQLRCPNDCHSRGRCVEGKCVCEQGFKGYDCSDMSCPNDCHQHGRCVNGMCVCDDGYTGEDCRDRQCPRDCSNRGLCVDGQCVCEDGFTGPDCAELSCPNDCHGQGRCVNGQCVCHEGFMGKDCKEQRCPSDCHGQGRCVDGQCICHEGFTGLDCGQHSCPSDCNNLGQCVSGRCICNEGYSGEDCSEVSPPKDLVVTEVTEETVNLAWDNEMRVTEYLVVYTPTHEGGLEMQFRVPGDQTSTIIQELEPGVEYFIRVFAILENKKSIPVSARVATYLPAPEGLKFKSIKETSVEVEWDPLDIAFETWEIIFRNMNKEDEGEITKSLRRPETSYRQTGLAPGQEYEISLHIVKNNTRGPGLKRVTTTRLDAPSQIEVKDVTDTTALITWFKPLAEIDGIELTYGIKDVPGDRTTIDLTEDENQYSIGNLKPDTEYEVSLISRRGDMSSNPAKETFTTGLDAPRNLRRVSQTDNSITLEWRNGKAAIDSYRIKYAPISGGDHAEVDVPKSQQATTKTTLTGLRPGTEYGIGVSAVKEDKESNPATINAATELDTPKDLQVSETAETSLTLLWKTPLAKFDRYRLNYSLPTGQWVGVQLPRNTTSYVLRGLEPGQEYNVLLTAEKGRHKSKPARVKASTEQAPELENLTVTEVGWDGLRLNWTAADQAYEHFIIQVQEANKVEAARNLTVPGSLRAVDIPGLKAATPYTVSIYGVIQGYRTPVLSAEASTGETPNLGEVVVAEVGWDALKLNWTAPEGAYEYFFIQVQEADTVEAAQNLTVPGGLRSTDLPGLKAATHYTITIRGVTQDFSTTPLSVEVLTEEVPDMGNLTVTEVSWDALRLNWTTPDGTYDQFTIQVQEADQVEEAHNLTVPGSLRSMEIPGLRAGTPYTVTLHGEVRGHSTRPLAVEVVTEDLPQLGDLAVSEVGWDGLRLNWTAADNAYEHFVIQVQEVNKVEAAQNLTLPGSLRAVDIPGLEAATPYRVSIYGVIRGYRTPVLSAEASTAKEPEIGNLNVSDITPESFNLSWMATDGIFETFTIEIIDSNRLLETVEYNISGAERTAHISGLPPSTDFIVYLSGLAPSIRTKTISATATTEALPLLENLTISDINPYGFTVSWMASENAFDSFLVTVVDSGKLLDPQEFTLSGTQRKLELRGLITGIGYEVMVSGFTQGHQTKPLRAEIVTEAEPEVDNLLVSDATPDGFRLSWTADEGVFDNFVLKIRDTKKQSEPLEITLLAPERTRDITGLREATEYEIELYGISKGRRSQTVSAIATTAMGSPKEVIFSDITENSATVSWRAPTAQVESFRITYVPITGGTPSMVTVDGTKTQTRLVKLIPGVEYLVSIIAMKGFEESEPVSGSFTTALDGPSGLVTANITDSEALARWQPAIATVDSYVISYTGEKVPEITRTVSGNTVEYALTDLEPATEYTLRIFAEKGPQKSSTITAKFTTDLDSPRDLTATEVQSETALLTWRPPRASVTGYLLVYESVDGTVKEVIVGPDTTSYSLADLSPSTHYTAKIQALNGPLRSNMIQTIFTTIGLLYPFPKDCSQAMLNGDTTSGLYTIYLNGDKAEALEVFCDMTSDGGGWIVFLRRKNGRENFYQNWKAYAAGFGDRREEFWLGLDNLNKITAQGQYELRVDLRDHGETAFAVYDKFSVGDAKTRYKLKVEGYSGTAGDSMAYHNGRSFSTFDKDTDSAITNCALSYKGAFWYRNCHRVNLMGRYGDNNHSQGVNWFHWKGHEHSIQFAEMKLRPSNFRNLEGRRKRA
Sequence of fibronectin purified from the conditioned medium of the SV40-transformed cell line WI38VA13 (human) (P02751 32-2477): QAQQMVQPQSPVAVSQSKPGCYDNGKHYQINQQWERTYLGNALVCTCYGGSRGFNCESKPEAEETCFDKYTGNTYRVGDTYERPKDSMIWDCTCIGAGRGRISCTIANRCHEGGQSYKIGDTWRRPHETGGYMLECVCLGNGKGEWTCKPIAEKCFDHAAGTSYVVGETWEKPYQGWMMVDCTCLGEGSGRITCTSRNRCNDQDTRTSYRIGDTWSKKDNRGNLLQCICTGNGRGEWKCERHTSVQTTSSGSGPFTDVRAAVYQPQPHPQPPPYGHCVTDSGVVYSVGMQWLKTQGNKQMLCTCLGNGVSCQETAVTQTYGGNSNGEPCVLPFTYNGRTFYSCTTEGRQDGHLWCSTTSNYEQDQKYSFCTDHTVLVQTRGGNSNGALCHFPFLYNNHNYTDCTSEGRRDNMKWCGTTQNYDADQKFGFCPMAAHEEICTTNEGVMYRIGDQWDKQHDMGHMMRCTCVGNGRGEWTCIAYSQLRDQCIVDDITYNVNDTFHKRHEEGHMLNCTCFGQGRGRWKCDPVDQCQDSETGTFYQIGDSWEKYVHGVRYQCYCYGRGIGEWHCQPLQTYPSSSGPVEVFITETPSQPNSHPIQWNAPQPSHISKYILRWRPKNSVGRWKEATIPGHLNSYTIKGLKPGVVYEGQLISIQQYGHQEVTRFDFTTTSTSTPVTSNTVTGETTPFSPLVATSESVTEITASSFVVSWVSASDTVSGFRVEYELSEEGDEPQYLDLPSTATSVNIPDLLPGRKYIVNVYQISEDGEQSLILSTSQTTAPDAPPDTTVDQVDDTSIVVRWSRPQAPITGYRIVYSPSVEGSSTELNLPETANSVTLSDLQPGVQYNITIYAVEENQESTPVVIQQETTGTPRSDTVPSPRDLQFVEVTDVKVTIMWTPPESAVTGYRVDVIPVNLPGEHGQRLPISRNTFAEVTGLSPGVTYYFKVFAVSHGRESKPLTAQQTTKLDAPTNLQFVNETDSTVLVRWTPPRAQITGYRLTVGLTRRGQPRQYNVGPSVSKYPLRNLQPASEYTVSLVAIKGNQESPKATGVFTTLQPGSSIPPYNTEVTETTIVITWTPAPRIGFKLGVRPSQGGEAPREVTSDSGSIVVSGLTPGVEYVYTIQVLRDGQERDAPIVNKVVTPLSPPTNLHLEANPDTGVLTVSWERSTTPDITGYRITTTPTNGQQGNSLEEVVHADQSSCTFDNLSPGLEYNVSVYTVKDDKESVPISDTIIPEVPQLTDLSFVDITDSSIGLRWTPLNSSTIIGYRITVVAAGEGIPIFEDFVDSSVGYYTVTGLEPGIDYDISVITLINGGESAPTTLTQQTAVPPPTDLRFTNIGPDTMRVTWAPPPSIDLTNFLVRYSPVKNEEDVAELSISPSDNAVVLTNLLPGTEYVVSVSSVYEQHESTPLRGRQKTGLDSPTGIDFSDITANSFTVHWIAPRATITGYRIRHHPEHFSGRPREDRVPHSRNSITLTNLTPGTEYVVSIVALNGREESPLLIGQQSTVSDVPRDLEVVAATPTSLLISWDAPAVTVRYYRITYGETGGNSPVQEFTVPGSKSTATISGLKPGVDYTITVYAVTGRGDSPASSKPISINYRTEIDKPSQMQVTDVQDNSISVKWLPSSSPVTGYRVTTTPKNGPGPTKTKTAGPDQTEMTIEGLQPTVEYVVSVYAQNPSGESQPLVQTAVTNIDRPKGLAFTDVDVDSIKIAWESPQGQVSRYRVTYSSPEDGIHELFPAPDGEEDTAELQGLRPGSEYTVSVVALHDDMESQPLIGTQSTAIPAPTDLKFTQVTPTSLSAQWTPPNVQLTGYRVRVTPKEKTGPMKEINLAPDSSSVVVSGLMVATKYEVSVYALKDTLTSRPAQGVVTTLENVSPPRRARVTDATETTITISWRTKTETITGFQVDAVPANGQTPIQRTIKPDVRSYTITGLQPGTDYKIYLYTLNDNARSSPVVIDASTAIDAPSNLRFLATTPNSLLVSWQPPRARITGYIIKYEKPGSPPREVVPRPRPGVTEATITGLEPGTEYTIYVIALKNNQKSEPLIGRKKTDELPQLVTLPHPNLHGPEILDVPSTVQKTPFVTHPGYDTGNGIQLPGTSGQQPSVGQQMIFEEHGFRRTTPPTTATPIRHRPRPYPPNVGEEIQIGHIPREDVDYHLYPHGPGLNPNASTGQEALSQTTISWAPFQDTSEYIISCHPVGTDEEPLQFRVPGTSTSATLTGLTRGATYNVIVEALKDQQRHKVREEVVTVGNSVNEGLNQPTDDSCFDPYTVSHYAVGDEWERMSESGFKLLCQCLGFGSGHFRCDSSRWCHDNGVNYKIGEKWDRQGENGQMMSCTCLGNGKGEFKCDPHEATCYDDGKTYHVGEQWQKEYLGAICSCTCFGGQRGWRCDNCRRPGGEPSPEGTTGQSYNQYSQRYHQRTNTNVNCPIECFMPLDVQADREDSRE
Sequence of recombinant ED-B domain of human fibronectin with a carboxy terminal hexahistidine tag (human) (P02751 other isoform, or with tags, fused parts or gaps limits assumed): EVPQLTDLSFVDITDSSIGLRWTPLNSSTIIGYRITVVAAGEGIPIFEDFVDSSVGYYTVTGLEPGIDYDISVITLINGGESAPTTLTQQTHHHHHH
Sequence of recombinant FN fragment 789 (human) (P02751 other isoform, or with tags, fused parts or gaps limits assumed): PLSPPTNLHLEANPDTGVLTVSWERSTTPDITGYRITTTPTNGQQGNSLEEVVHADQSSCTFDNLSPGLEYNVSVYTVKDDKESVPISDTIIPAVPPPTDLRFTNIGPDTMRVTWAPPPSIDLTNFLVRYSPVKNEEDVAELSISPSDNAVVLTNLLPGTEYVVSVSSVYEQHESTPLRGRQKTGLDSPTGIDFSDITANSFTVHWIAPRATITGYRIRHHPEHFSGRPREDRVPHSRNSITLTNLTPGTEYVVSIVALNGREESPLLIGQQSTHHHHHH
Sequence of recombinant FN domain 6 (human) (P02751 other isoform, or with tags, fused parts or gaps limits assumed): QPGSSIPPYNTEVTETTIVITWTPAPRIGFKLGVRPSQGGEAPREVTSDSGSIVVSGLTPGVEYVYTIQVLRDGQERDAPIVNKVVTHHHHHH

Regarding mAb IST-6 (antibody), the OD at 405 nm came to 0.04 OD 405 nm in assay [1]; 1.25 OD 405 nm in [2]; 1.12 OD 405 nm in assay [3]; 1.73 OD 405 nm in assay [4]; 0.03 OD 405 nm in [5]; 0.01 OD 405 nm in assay [6]. Moreover, the OD at 405 nm in assay [7] was determined as 1.2 OD 405 nm; in [8] it was 0.02 OD 405 nm; in assay [9], 0.02 OD 405 nm.
As to mAb BC-1 (antibody), the OD at 405 nm came out at 0.15 OD 405 nm in assay [1]; 0.05 OD 405 nm in [2]; 1.2 OD 405 nm in [3]; 0.09 OD 405 nm in [4]; 0.08 OD 405 nm in assay [5]; 1.02 OD 405 nm in [6]. In addition, the results for the OD at 405 nm in assay [7], in assay [8] and in assay [9] were 0.05 OD 405 nm, 0.06 OD 405 nm and 1.2 OD 405 nm, respectively.
